Assay results reported in publication PMC5776806.

Biological target: extracellular soluble part of EGFR (sEGFR) (UniProt P00533)
Assay: SPR

EGF (ligand) was tested, and the Kd was 60 nM.
